# Assay results: patent CN110954697A
# Key:
# [1] = biological target: 抗PD-1单链抗体与IgG4Fc片段融合蛋白 (anti-PD-1 scFv-IgG4 Fc fusion secreted by Meso3CAR-T-antiPD1 cells); assay: flow cytometry on Meso3CAR-T-antiPD1 cells; 2 μL PE-labelled anti-IgG4 Fc antibody, read directly (these cells also carry Meso3CAR with an IgG4 CH2CH3 hinge)
# [2] = biological target: 抗PD-1单链抗体与IgG4Fc片段融合蛋白 (anti-PD-1 scFv-IgG4 Fc fusion secreted by Meso3CAR-T-antiPD1 cells); assay: flow cytometry on Meso3CAR-T-antiPD1 cells; 2 μL of 1 mg/mL biotin-labelled reagent, streptavidin-PE
# 抗PD-1单链抗体与IgG4Fc片段融合蛋白 (anti-PD-1 scFv-IgG4 Fc fusion secreted by Meso3CAR-T-antiPD1 cells), sequence (chain, as listed by the source): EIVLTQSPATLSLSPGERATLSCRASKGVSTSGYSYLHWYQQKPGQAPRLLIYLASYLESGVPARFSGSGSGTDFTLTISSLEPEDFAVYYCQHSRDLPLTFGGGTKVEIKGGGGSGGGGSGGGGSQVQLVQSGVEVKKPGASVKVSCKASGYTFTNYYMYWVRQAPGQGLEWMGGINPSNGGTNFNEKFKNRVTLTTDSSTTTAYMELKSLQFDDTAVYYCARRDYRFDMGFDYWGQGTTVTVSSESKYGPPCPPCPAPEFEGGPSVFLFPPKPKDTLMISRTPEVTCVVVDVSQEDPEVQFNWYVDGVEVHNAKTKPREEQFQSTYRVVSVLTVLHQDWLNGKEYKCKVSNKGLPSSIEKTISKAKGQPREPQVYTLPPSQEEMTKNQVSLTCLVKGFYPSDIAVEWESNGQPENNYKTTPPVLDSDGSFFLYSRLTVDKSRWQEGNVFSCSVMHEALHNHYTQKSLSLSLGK
阳性率 (percent positive cells) [1] [%],阳性细胞的比例 (percent positive cells) [2] [%],Substance
39.9,,"PE标记的抗IgG4Fc抗体 (PE-labelled anti-IgG4 Fc antibody), Abcam, 货号 ab99825"
,31.6,"抗PD-1抗体的抗体 (antibody against the anti-PD-1 antibody), 金斯瑞 GenScript, 货号 A01853-40, biotin-labelled"
